Test results: patent publication US20180155451A1 (published 2018)

T1: FcγRIIa R (human, UniProt P12318 34-217)
T1 construct: extracellular domain; Soluble extracellular domain with C-terminal His tag, expressed in FreeStyle293 cells; also called FcgRIIa R; FcγRIIa type R; not shown: His tag attached to the C terminus
T1 sequence (looked up): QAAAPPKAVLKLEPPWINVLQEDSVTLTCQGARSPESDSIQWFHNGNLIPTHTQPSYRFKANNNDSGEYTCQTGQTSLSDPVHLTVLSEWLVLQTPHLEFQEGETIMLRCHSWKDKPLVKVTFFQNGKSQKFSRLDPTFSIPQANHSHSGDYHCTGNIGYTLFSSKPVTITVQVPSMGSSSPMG


Molecular target: T1, FcγRIIa R
Assay: SPR (Biacore), antibody captured via antigen peptide, FcγRIIa R as analyte; heterodimerized antibody
Protocol: Analysis of interaction between objective antibody and the FcγR was carried out using Biacore T100 (GE Healthcare). HBS-EP+ (GE Healthcare) was used as the running buffer, and the measurement temperature was set to 25° C. Chips produced by immobilizing the antigen peptide by the amine coupling method to a Series S Sencor Chip CM5 (GE Healthcare), or alternatively, chips produced by allowing preliminarily biotinylated antigen peptides to interact with and immobilize onto a Series S Sensor Chip SA (certified) (GE Healthcare) were used. Antibodies of interest were captured onto an antigen peptide-immobilized chip, and allowed to interact to each FcγR diluted with running buffer. To regenerate and repeatedly use the chip, the antibodies captured on the chip were washed off by reacting 10 mM glycine-HCl, pH 1.5.

| He/Con_2aR | Binder |
| --- | --- |
| 114 % of control (GpH7-A5/GpH7-B3/GpL16-k0 = 100) | GpH7-A5/GpH7-B3 variant K334_07I/GpL16-k0 (antibody, human IgG1, kappa, heterodimerized; mutation in one H chain only; also called He Ab) heavy 1: not shown heavy 2: not shown light: DIVMTQSPLSLPVTPGEPASISCQASESLVHSNRNTYLHWYLQKPGQSPQLLIYKVSNRFSGVPDRFSGSGSGTDFTLKISRVEAEDVGVYYCSQNTHVPPTFGQGTKVEIERTVAAPSVFIFPPSDEQLKSGTASVVCLLNNFYPREAKVQWKVDNALQSGNSQESVTEQDSKDSTYSLSSTLTLSKADYEKHKVYACEVTHQGLSSPVTKSFNRGEC |
| 112 % of control (GpH7-A5/GpH7-B3/GpL16-k0 = 100) | GpH7-A5/GpH7-B3 variant K334_14T/GpL16-k0 (antibody, human IgG1, kappa, heterodimerized; mutation in one H chain only; also called He Ab) heavy 1: not shown heavy 2: not shown light: DIVMTQSPLSLPVTPGEPASISCQASESLVHSNRNTYLHWYLQKPGQSPQLLIYKVSNRFSGVPDRFSGSGSGTDFTLKISRVEAEDVGVYYCSQNTHVPPTFGQGTKVEIERTVAAPSVFIFPPSDEQLKSGTASVVCLLNNFYPREAKVQWKVDNALQSGNSQESVTEQDSKDSTYSLSSTLTLSKADYEKHKVYACEVTHQGLSSPVTKSFNRGEC |
| 108 % of control (GpH7-A5/GpH7-B3/GpL16-k0 = 100) | GpH7-A5/GpH7-B3 variant K334_15Y/GpL16-k0 (antibody, human IgG1, kappa, heterodimerized; mutation in one H chain only; also called He Ab) heavy 1: not shown heavy 2: not shown light: DIVMTQSPLSLPVTPGEPASISCQASESLVHSNRNTYLHWYLQKPGQSPQLLIYKVSNRFSGVPDRFSGSGSGTDFTLKISRVEAEDVGVYYCSQNTHVPPTFGQGTKVEIERTVAAPSVFIFPPSDEQLKSGTASVVCLLNNFYPREAKVQWKVDNALQSGNSQESVTEQDSKDSTYSLSSTLTLSKADYEKHKVYACEVTHQGLSSPVTKSFNRGEC |
| 109 % of control (GpH7-A5/GpH7-B3/GpL16-k0 = 100) | GpH7-A5/GpH7-B3 variant K334_16H/GpL16-k0 (antibody, human IgG1, kappa, heterodimerized; mutation in one H chain only; also called He Ab) heavy 1: not shown heavy 2: not shown light: DIVMTQSPLSLPVTPGEPASISCQASESLVHSNRNTYLHWYLQKPGQSPQLLIYKVSNRFSGVPDRFSGSGSGTDFTLKISRVEAEDVGVYYCSQNTHVPPTFGQGTKVEIERTVAAPSVFIFPPSDEQLKSGTASVVCLLNNFYPREAKVQWKVDNALQSGNSQESVTEQDSKDSTYSLSSTLTLSKADYEKHKVYACEVTHQGLSSPVTKSFNRGEC |
| 112 % of control (GpH7-A5/GpH7-B3/GpL16-k0 = 100) | GpH7-A5/GpH7-B3 variant K334_18N/GpL16-k0 (antibody, human IgG1, kappa, heterodimerized; mutation in one H chain only; also called He Ab) heavy 1: not shown heavy 2: not shown light: DIVMTQSPLSLPVTPGEPASISCQASESLVHSNRNTYLHWYLQKPGQSPQLLIYKVSNRFSGVPDRFSGSGSGTDFTLKISRVEAEDVGVYYCSQNTHVPPTFGQGTKVEIERTVAAPSVFIFPPSDEQLKSGTASVVCLLNNFYPREAKVQWKVDNALQSGNSQESVTEQDSKDSTYSLSSTLTLSKADYEKHKVYACEVTHQGLSSPVTKSFNRGEC |

The next lines start with the binder.

| Binder | He/Con_2aR |
| --- | --- |
| GpH7-A5/GpH7-B3 variant K326_10E/GpL16-k0 (antibody, human IgG1, kappa, heterodimerized; mutation in one H chain only; also called He Ab) heavy 1: not shown heavy 2: not shown light: DIVMTQSPLSLPVTPGEPASISCQASESLVHSNRNTYLHWYLQKPGQSPQLLIYKVSNRFSGVPDRFSGSGSGTDFTLKISRVEAEDVGVYYCSQNTHVPPTFGQGTKVEIERTVAAPSVFIFPPSDEQLKSGTASVVCLLNNFYPREAKVQWKVDNALQSGNSQESVTEQDSKDSTYSLSSTLTLSKADYEKHKVYACEVTHQGLSSPVTKSFNRGEC | 148 % of control (GpH7-A5/GpH7-B3/GpL16-k0 = 100) |
| GpH7-A5/GpH7-B3 variant K326_14T/GpL16-k0 (antibody, human IgG1, kappa, heterodimerized; mutation in one H chain only; also called He Ab) heavy 1: not shown heavy 2: not shown light: DIVMTQSPLSLPVTPGEPASISCQASESLVHSNRNTYLHWYLQKPGQSPQLLIYKVSNRFSGVPDRFSGSGSGTDFTLKISRVEAEDVGVYYCSQNTHVPPTFGQGTKVEIERTVAAPSVFIFPPSDEQLKSGTASVVCLLNNFYPREAKVQWKVDNALQSGNSQESVTEQDSKDSTYSLSSTLTLSKADYEKHKVYACEVTHQGLSSPVTKSFNRGEC | 134 % of control (GpH7-A5/GpH7-B3/GpL16-k0 = 100) |
| GpH7-A5/GpH7-B3 variant K326_16H/GpL16-k0 (antibody, human IgG1, kappa, heterodimerized; mutation in one H chain only; also called He Ab) heavy 1: not shown heavy 2: not shown light: DIVMTQSPLSLPVTPGEPASISCQASESLVHSNRNTYLHWYLQKPGQSPQLLIYKVSNRFSGVPDRFSGSGSGTDFTLKISRVEAEDVGVYYCSQNTHVPPTFGQGTKVEIERTVAAPSVFIFPPSDEQLKSGTASVVCLLNNFYPREAKVQWKVDNALQSGNSQESVTEQDSKDSTYSLSSTLTLSKADYEKHKVYACEVTHQGLSSPVTKSFNRGEC | 120 % of control (GpH7-A5/GpH7-B3/GpL16-k0 = 100) |
| GpH7-A5/GpH7-B3 variant K326_19Q/GpL16-k0 (antibody, human IgG1, kappa, heterodimerized; mutation in one H chain only; also called He Ab) heavy 1: not shown heavy 2: not shown light: DIVMTQSPLSLPVTPGEPASISCQASESLVHSNRNTYLHWYLQKPGQSPQLLIYKVSNRFSGVPDRFSGSGSGTDFTLKISRVEAEDVGVYYCSQNTHVPPTFGQGTKVEIERTVAAPSVFIFPPSDEQLKSGTASVVCLLNNFYPREAKVQWKVDNALQSGNSQESVTEQDSKDSTYSLSSTLTLSKADYEKHKVYACEVTHQGLSSPVTKSFNRGEC | 129 % of control (GpH7-A5/GpH7-B3/GpL16-k0 = 100) |
| GpH7-A5/GpH7-B3 variant K334_03V/GpL16-k0 (antibody, human IgG1, kappa, heterodimerized; mutation in one H chain only; also called He Ab) heavy 1: not shown heavy 2: not shown light: DIVMTQSPLSLPVTPGEPASISCQASESLVHSNRNTYLHWYLQKPGQSPQLLIYKVSNRFSGVPDRFSGSGSGTDFTLKISRVEAEDVGVYYCSQNTHVPPTFGQGTKVEIERTVAAPSVFIFPPSDEQLKSGTASVVCLLNNFYPREAKVQWKVDNALQSGNSQESVTEQDSKDSTYSLSSTLTLSKADYEKHKVYACEVTHQGLSSPVTKSFNRGEC | 117 % of control (GpH7-A5/GpH7-B3/GpL16-k0 = 100) |
